Laboratory results reported in publication PMC7954794, “Protein context shapes the specificity of SH3 domain-mediated interactions in vivo” (Nature Communications, 2021).

Test system: PPIs identified as affected by the SH3 domain deletions
Assay: Liquid DHFR-PCA low-throughput validation of PPIs affected by SH3 deletion (Fig. S1D-E)
Assay type: cell-based, Saccharomyces cerevisiae
Settings: label = prey, liquid DHFR-PCA, prey _1 = lost, _2 = gained in screen
In short: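 Yeast diploids from DHFR-PCA mating grown 48 h in synthetic complete MSG medium pH 6.0 with NAT and HPH, normalized to 1 OD and diluted to 0.1 OD in liquid PCA selection medium. Growth followed by OD every 15 min for 72 h at 30 °C.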

| Molecule | Ratio (Deletedscore / WTscore) (bait LSB3) | also measured |
| --- | --- | --- |
| YLR166C_1 (protein, UniProt Q06245 1-871, looked up) Exocyst complex component …: MNSLYELDPKWKKLLKTDNFLGGLTVNEFVQELSKDHRNDVLIDANTKNLPTNEKDQDAIREAIWKQLDPKPYIRTFESTLKELKNLNEETLNKRQYFSEQVATQEVIHSENVIKLSKDLHTTLLTFDKLDDRLTNVTQVVSPLGDKLETAIKKKQNYIQSVELIRRYNDFYSMGKSDIVEQLRLSKNWKLNLKSVKLMKNLLILSSKLETSSIPKTINTKLVIEKYSEMMENELLENFNSAYRENNFTKLNEIAIILNNFNGGVNVIQSFINQHDYFIDTKQIDLENEFENVFIKNVKFKEQLIDFENHSVIIETSMQNLINDVETVIKNESKIVKRVFEEKATHVIQLFIQRVFAQKIEPRFEVLLRNSLSISNLAYVRILHGLFTLFGKFTKSLIDYFQLLEIDDSNQILSTTLEQCFADLFSHYLYDRSKYFGIEKRSLEAILVDMTSKFTVNYDKEINKRVLLDKYKEKLSTNVDAFMHSPRGNTHSRQDSTSRSKLSQFNSFLKTHLDKDHLSLNRTNTLSDSFNNSSSSTQYDVANNSSSLVNSSFTASDIDNSPNSPANYSLNDVDSMLKCVVESTARVMELIPNKAHLYILEILKIMFLGIVDSYMEIALEVAYWKICKVDINKTAGVVNLNFLKFISMSTEILDLLSISIKSIFLPLLNNSPEIKAQIIEMTNSQIQKMEILINIILQETITVISTKFSAILCKQKKKDFVPKSQELLDQDTLPAIEIVNILNLIFEQSSKFLKGKNLQTFLTLIGEELYGLLLSHYSHFQVNSIGGVVVTKDIIGYQTAIEDWGVASLIDKFATLRELANLFTVQPELLESLTKEGHLADIGRDIIQSYISNREDFNHDNFINSVKLNFR | 0.4618 |  |
| YIL095W_1 (protein, UniProt P40494 1-810, looked up) Actin-regulating kinase PRK1: MNTPQISLYEPGTILTVGSHHAKIIKYLTSGGFAQVYTAEISPPDPYSNANIACLKRVIVPHKQGLNTLRAEVDAMKLLRNNKHVVSYIDSHAARSVNGIAYEVFVLMEFCERGGLIDFMNTRLQNRLQESEILEIMSQTVQGITAMHALQPPLIHRDIKIENVLISHDGLYKVCDFGSVSGVIRPPRNTQEFNYVQHDILTNTTAQYRSPEMIDLYRGLPIDEKSDIWALGVFLYKICYYTTPFEKSGEAGILHARYQYPSFPQYSDRLKNLIRLMLMEAPSQRPNICQVLEEVSRLQNKPCPIRNFYLLRAMNQNANTQLAGEPSSTTYVPTQKFIPVQSLQSINQPPNMMPVTHVSTTPNLGTFPISINDNNKTEVTAHAGLQVGSHSNLTSPLMKTKSVPLSDEFASLYYKELHPFQKSQTFKSVESFQSPQRKSMPPLSLTPVNNDIFDRVSAINRPNNYVDSETQTIDNMAVPNLKLSPTITSKSLSSTKEIAAPDNINGSKIVRSLSSKLKKVITGESRGNSPIKSRQNTGDSIRSAFGKLRHGFTGNSVNNSRSASFDNNNVNGNGNNTNRRLVSSSTSSFPKFNSDTKRKEESDKNQRLEKRRSMPPSILSDFDQHERNNSRTGSRDYYRSHSPVKKTQASAKTTSKPTLIPDNGNVNINQEKKESIQRRVHNLLKSSDDPVTYKSASGYGKYTDIGTETSNRHSSVRITPITEEKFKKTLKDGVLDIKTKSNGKDKSRPPRPPPKPLHLRTEIQKIRNFSRLQSKKLPIERISSEATETIVDVNVDDLEADFRKRFPSKV | 0.5323 |  |
| YJL201W_1 (protein, UniProt P32525 1-599, looked up) Protein ECM25: MIDINVNNIFFRSYSVDPNSGHAIYVFDSTYLPASDEIGDKQVYDLLINALMDRLVMKLPQAPYSLVIFSSGFSQRKISWVYGIKMFAKLPKETKFYLQKIFIVHESFFVRSVYQVISNAMNFNFLDSKDSQHDFPSLVHVLDLTSLSELIDITRLRISLNVYLYDYQIREHINVPEEYYNRLTPLAIRQYRQLVFDKIFKKLQNDALLCELIFQKPGNYKKVNIFLDIIKRNNYIDLSQWDIYSLASVWLNYFIKNKAKPLIPIELIPLPIVDDLKFTSETFRKIIKFNQYQDLFMVIIPFFNRIIAHGESTKHDSRTLSKALTPALCKEKLSMMTNDRLAIGSRYIKNLLDFFPEIAKEISSPPSSVSSSSTIPVLPKPRKSSPTRYSELGCLTLPRSRSPSPQRSVTSPTYTPVALQNTPVLKPKSSSRNVSSPSFNAKPPLPIKAVTRPQLSLTSNSNTDLALASSSTDTLSSPTKTPSADSLPLSNSSTDLTISDNIKEMVKDEPAKDKNSVETDIFVQQFESLTLVQNAKIKKFDKELQEKKKKNETTSKTADKFSQKGYSDIKASNKVSRLAALYEERLQGLQVMNEMKQRW | 0.8948 |  |
| YMR192W_1 (protein, UniProt Q04322 1-720, looked up) Probable GTPase-activating …: MNSNEDIHEERIEVPRTPHQTQPEKDSDRIALRDEISVPEGDEKAYSDEKVEMATTNASSNFGSNESAKDGESIGAFSNPHEALMQSKLREESQSKTILPSDDLSQQLETEESKVEEALKRITSPPLPPRADCIEESASALKSSLPPVLAGNKNDQAPLDRPQLPPRQVVNAETLHLKAPHGNATPSKSPTSAVGNSSSSTPPTLPPRRIEDPLDLAAQKHFLASTFKRNMLFYKSEDNSIKCDLDKNILNLKEDSKKINNNEIPEEVSSFWLKVIGDYQNILINDIETLHFQLSRGIPAAYRLVVWQLVSYAKSKSFDPIYETYLTEMAPFDVQEFENQLKMMDEVPSEYVKRISNVLKAYLLFDPECEFSTDIAYIINMILDVCEEEANAFGLLVRLMKVYGLRLLFLPSASEIDILCYKFDRLVEEFYPEIHNHMVEKGVRSSMFLPGFFTTLFQKKLPTEIQPRIGDMVFLEGIDSIMRILATLLSNSRDHLLKMGFDDMLELLKSGLLDAYIKQNDGTRGDTLLSNECMDKLLQDSMMKVAITPKTMKKYSSEYEEIHRLDNEKEVQYKSITEKNLHLQKHVRKLENDYTSLNREHVTIANELVKNRLNIESVLNENNGYKLQILDLKKKLDSEKKKQVLGVYVPNDLKKDLEETMKKNTQVMDENLKLQDRISELERLIEEIKTANKNGTLFEYSNSKNNPLGAGWSGFKKVFK | 0.5637 |  |
| YNL229C_1 (protein, UniProt P23202 2-354, looked up) Transcriptional regulator URE2: MNNNGNQVSNLSNALRQVNIGNRNSNTTTDQSNINFEFSTGVNNNNNNNSSSNNNNVQNNNSGRNGSQNNDNENNIKNTLEQHRQQQQAFSDMSHVEYSRITKFFQEQPLEGYTLFSHRSAPNGFKVAIVLSELGFHYNTIFLDFNLGEHRAPEFVSVNPNARVPALIDHGMDNLSIWESGAILLHLVNKYYKETGNPLLWSDDLADQSQINAWLFFQTSGHAPMIGQALHFRYFHSQKIASAVERYTDEVRRVYGVVEMALAERREALVMELDTENAAAYSAGTTPMSQSRFFDYPVWLVGDKLTIADLAFVPWNNVVDRIGINIKIEFPEVYKWTKHMMRRPAVIKALRGE |  | Ratio (Deletedscore / WTscore) (bait LSB1): 1.043 |
| YML016C_2 (protein, UniProt P26570 2-692, looked up) Serine/threonine-protein …: GNSSSKSSKKDSHSNSSSRNPRPQVSRTETSHSVKSAKSNKSSRSRRSLPSSSTTNTNSNVPDPSTPSKPNLEVNHQRHSSHTNRYHFPSSSHSHSNSQNELLTTPSSSSTKRPSTSRRSSYNTKAAADLPPSMIQMEPKSPILKTNNSSTHVSKHKSSYSSTYYENALTDDDNDDKDNDISHTKRFSRSSNSRPSSIRSGSVSRRKSDVTHEEPNNGSYSSNNQENYLVQALTRSNSHASSLHSRKSSFGSDGNTAYSTPLNSPGLSKLTDHSGEYFTSNSTSSLNHHSSRDIYPSKHISNDDDIENSSQLSNIHASMENVNDKNNNITDSKKDPNEEFNDIMQSSGNKNAPKKFKKPIDIDETIQKLLDAGYAAKRTKNVCLKNNEILQICIKAREIFLSQPSLLELSPPVKIVGDVHGQYGDLLRLFTKCGFPPSSNYLFLGDYVDRGKQSLETILLLFCYKIKYPENFFLLRGNHECANVTRVYGFYDECKRRCNIKIWKTFIDTFNTLPLAAIVAGKIFCVHGGLSPVLNSMDEIRHVVRPTDVPDFGLINDLLWSDPTDSPNEWEDNERGVSYCYNKVAINKFLNKFGFDLVCRAHMVVEDGYEFFNDRSLVTVFSAPNYCGEFDNWGAVMSVSEGLLCSFELLDPLDSAALKQVMKKGRQERKLANQQQQMMETSITNDNESQQ |  | Ratio (Deletedscore / WTscore) (bait ABP1): 1.259; Ratio (Deletedscore / WTscore) (bait BOI1): 1.203; Ratio (Deletedscore / WTscore) (bait BZZ1-2): 1.516 |
| YLR436C_1 (protein, UniProt Q06673 1-1274, looked up) Protein ECM30: MGNTDSKSSSILLNHCIALVRPEDADASSPSRTSSPSPSLSVDADPLSLNLSIFKLDSGPDVEALFSDKPNVPLDTVFNDFYLDFISVDVQDFSINSSFKKILHIISSLNPPNFNNLIVFLSLYIILSANSLPASRTGLHSSRLINAIKTLSILIPIYFDRVKSSTQDHYDVFWATQHEIEGLPLQNIPLGERLLLAILKLAFQDNFTTAVTAHPSELWEIGILTNSNKYRSLLNMHHQWHLFANRLLLLRLLAALFSSDLYTSGGKQDINMFLVYWCTQMPKDKSIQFTSSLLNCTMRFILNNNKDFQSLKANFFSSDATASNWQTLYFQFVQSCLHVLNLSMSYKAQDNVITIFLTQLQREYDLKLILSSFIKIFKYPIDLAIEQESNIFNFTNNKHIDASRRRAVSTSSHDNSSSSHASLPSSSSAAYHTKPQTKPQLPEIHPLLIPMTILMTNLIDCNKCFQNYFADKFASRFIIFSIYYLKYYDYSSLSSSSSTTRSNSSTTSNGTSNDTSNERSIVELNENSVSQILLPLLNHLLLILTSKKLVLFKMLQTFNLNYYTNNLPNFYKLSNINGDINNLTFRDFTVIQLSNLILDNIKFNLQPNPIFYELIYNLLPINDEILTSSHKNDDSHDDLILLSAKKKSASPSAATSSHTSSSKLSYNAAMSLLYVLSKSSNKVYLTTYATPVFKTKDIPYMISPGFKMDLLALLLRSITIFFTLYFDDAENLLFAMVRHQSITHQINDSINSISKALDMNPNLNSHIMTLKQMGFNRKVQWKDFYQFEEITDLPQVNLYSSANQQHQNQQQGQNDNRGQNQNEDPGQENESPTPYLLFNPASLENETPGTVKHFSSTNHDKNYQVIAFIDFKSDSNLNLQHQLEYWPHRPQWPTPLTFTHKCKNPKYENFNEVWSGTVYLQILLRVIKQILSKVPEIPRIKSVQYFETLSKLSALRSDILTTIHPRLPLDVRRLTTFQPLSMHTNDKLLMWFHIATWANIFTQTSFKYEETFSHELRQFESLLDISIDECEGNTISKPTTDRLGYIRRSRGQSSVSLERTISAGSGVSTPTMALNRTKSNGSGNLMNYFFQNTAQNHFQHLRSSSSSSSITLEKTTSNSSSIRTRPNSHHVAPETNNNNSTNGNSNNSSNGGFSFFKWKWGGNNSNGGSDDTKASQRDPNVSTSIITDNLNSYMFEEEISPGVVNNIIENNIWVGTDIRLFKIANFRKESFSFLEMTSSFFKKFKFINSDNDNYNNNEFDDNTQLRYTSRGLYR | 0.9725 |  |
